For one test, the target named is T1, Siglec-6 ECD Fc protein (human, UniProt O43699 27-347).
T1 construct: also called Siglec-6 full ECD fused to a human Fc; not shown: human Fc
The test is described as follows: BLI (Octet Red 384), bivalent IgG on immobilized Siglec-6 ECD Fc. Here is the method: Bivalent binding affinities of IgG for Siglec-6 mAbs were measured by biolayer interferometry using a FortéBio Octet Red 384 instrument using immobilized Siglec-6 ECD Fc protein.

The target of test [1] is T2, Siglec-6 domains 1 and 2 fused to a human Fc (human, UniProt O43699 27-237).
T2 construct: also called domains 1 and 2 fusion protein; not shown: human Fc
T2 sequence (O43699 27-237 limits assumed): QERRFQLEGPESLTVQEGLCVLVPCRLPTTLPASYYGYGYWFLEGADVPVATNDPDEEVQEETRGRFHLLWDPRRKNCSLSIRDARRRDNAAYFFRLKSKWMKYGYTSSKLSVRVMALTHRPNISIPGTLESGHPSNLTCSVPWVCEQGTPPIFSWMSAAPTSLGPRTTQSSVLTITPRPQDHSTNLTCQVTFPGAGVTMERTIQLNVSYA
The test is described as follows: ELISA on Siglec-6 domain-human Fc fusions (Domain Mapping = 3). The procedure: (§1) Domain mapping was assessed by ELISA using recombinantly expressed Siglec-6 extracellular domains fused to a human Fc containing the full ECD, domains 1 and 2, or domain 1. Siglec-6 mAbs were tested for binding to each of these domain fusion proteins and assigned domains based on their specific binding properties. Siglec-6 mAbs that bound to all three fusion proteins were assigned domain 1 binders, mAbs that bound to full ECD and domains 1 and 2 were assigned domain 2 binders, and mAbs that bound to only the full ECD protein were assigned domain 3 binders.
(In general: In an ELISA, binding on a coated surface is turned into a signal by an enzyme label.)

Test [2] deals with T3, Siglec-6 domain 1 fused to a human Fc (human, UniProt O43699 27-147).
T3 construct: also called domain 1 fusion protein; not shown: human Fc
T3 sequence (O43699 27-147 limits assumed): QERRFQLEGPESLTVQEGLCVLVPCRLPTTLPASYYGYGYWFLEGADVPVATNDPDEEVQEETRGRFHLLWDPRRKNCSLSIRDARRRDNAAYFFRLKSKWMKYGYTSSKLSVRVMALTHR
Described as above. Here is the method:
as §1

Test [3] has as its target Siglec-6 (antigen of Example 8) (human, UniProt O43699 27-347, limits assumed). Briefly: BLI, monovalent Fab. On the technique in general: In BLI a coated tip is dipped into the sample, and binding shifts an interference pattern.

T1 sequence (O43699 27-347): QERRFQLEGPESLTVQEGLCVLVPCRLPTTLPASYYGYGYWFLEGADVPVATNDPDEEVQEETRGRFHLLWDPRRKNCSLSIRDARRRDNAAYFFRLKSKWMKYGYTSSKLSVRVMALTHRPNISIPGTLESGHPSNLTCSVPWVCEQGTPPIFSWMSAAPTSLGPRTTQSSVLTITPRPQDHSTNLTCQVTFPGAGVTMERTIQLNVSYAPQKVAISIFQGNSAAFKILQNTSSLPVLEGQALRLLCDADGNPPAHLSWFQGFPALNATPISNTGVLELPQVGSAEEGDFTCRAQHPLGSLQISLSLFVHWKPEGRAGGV
Siglec-6 (antigen of Example 8), sequence (O43699 27-347 limits assumed): as the sequence (O43699 27-347) above

In the test with Siglec-6 ECD Fc protein, R&D MAB2859 (antibody) showed a Kd of 9 pM.

B1: AK14 (antibody, V domains shown)
VH: QIQLVQSGPELKKPGETVKISCKASGYTFTTYGMSWVKQAPGKGLKWMGWINTYSGVPTYADDFKGRFAFSLETSATTAYLQINNLKNEDTATYFCARLAYFGYYFDFWGQGTTLTVSS
VL: DIVMTQSQKFMSTTVGDRVSFTCKASQNVGSAVAWYQQKPGQSPKLLIYSASNRYTGVPDRFTGSGSGTDFTLTISNMQSEDLADYFCQQYSSYPYTFGGGTKLEIK
notes: also called anti-Siglec-6 mAb AK14
Consider B1, for which the binding result in test [1] and in test [2] was “no binding” each time. The same molecule had a Kd with Siglec-6 ECD Fc protein of 72 pM.

B2: AK09 (antibody, V domains shown)
VH: QIQLVQSGPELKKPGETVKISCKASGYTLTTYGMSWVKQAPGKGLKWMGWINTYSGVPTYADEFKGRFAFSLETSASTAYLQINNLKNEDTATYFCARLGYYGYYFDYWGQGTTLTVSS
VL: DVVLTQSPATLSVTPGDSVSLSCRASQSIRNNLHWYQQKSHESPRLLIKYIFQSISGIPSRFSGSGSGTEFTLSINSVETEDFGMYFCQQSDSWPHVTFGAGTKLELI
notes: also called anti-Siglec-6 mAb AK09
With B2, the binding result in test [1] and in test [2] was “no binding” each time. Further, the Kd with Siglec-6 ECD Fc protein came out at 110 pM.

B3: AK13 (antibody, V domains shown)
VH: QIQLVQSGPELKKPGETVKISCKASGYTFTTYGMSWVKQAPGKGLKWMGWINTYSGVPTYADDFKGRFAFSLETSATTAYLQINNLKNEDTATYFCARLAYFGYYFDFWGQGTTLTVSS
VL: DIVMTQSQKFMSTTVGDRVSFTCKASQNVGSAVTWYQQKPGQSPKLLIYSASNRYTGVPDRFTGSGSGTDFTLTISNMQSEDLADYFCQQYSSYPYTFGGGTKLEIK
notes: also called anti-Siglec-6 mAb AK13
With B3, the binding result in test [1] and in test [2] was “no binding” in each case. This molecule yielded a Kd with Siglec-6 ECD Fc protein of 63 pM.

B4: AK06 (antibody, V domains shown)
VH: EVPLVESGGGLVKPGGSLKLSCAASGFTFSDYGIHWVRQAPEKGLEWVAYITSVSSTIYYADTVKGRFTISRDNAKNTLFLQMTSLRSEDTAMYYCAILDWYFDVWGTGTTVTVSS
VL: QIVLTQSPAIMSASPGEKVTMTCSANSSVSFMHWFQQKSGTSPKRWIYDTSKLASGVPARFSASGSGTSYSLTISSMEAEDAATYYCQQWSSNPLTFGAGTKVELK
notes: also called anti-Siglec-6 mAb AK06
For the molecule B4, the Kd with Siglec-6 ECD Fc protein was determined as 24 pM.

B5: AK07 (antibody, V domains shown)
VH: EVQLQQSGPELVKPGASVKMSCKASGYTFTDYKMHWVKQSHGKSLEWIGNINPNNGGTSYNQKFKGKATLTVNKSSSTAYMELRSLTSEDSAVYYCARRYYGSSSSYFDYWGQGTTLTVSS
VL: QIVLTQSPAIMSASPGEKVTMTCSVSSSVSYMHWYQQKSGTSPKRWIYDTSKLASGVPARFSGSGSGTSYSLTISSMEAEDAATYYCQQWSSNPPTFGAGTKLELK
notes: also called anti-Siglec-6 mAb AK07
Consider B5, for which, in the test with Siglec-6 ECD Fc protein, the Kd amounted to 69 pM.

B6: AK05 (antibody, V domains shown)
VH: QVQLQQPGTELVKPGASVQLSCKASGYIFTSYWMYWVKQRPGQGLEWIGNVNPYSGDTNYNEKFKTKATLTVDKASSTAFIQLSGLTSEDSAVYFCARGDGLYYYAMDYWGQGTSVTVSS
VL: DIKMTQSPSSMYASLGERVTITCKASQDINSYLTWFQQKPGKSPKTLIYRASRLVDGVPSRFSGSGSGQDYSLTISSLEYEDMGIYYCLQYDEFPLTFGAGAKLELI
notes: also called anti-Siglec-6 mAb AK05
In the test with Siglec-6 ECD Fc protein, B6 registered a Kd of 55 pM.

B7: AK15 (antibody, V domains shown)
VH: QVQLKESGPGLVAPSQSLSITCTVSGFSLTSYGVSWVRQPPGKGLEWLGIIWGDGSTNYHSALISRLSISKDKSKSQVFLKLNSLQADDTATYYCAKGLSDWYFDVWGTGTTVTVSS
VL: QIVLSQSPAILSASPGEKVTMTCRASSSVSYMHWYQQKPGSSPKPWIYATSNLASGVPARFSGSGSGTSYSLTISRVEAEDAATYYCQQWSSNPYTFGGGTKLEIK
notes: also called anti-Siglec-6 mAb AK15
Consider B7, for which the binding result in test [1] and in test [2] was “no binding” in each case. This molecule also came in with a Kd with Siglec-6 ECD Fc protein of 1040 pM.

B8: AK02 (antibody, V domains shown)
VH: QVQLQQPGAELVKPGASVKLSCKASGYTFTNYYIHWVKQRPGQGLEWIGMIHPISGSTNYNEKLKIKATLTVDKSSSTAYMQLSSLTSEDSAVYYCARRYYGSSYWYFDVWGTGTTVTVSS
VL: QIVLSQSPAILSASPGEKVTMTCRASSSVSYMNWYQQKPGSSPKPWIYATSNLASGVPARFSGSGSGTPYSLTISRVEAEDAATYYCQQWSSHPPTFGSGTKLEIK
notes: also called anti-Siglec-6 mAb AK02
B8: the Kd with Siglec-6 ECD Fc protein was 7 pM.

B9: AK03 (antibody, V domains shown)
VH: EVQLQQSGTVLARPGASVKMSCKTSGYTFTSYWMHWVKQRPGQGLEWIGTIYPGNSDSTYNQKFKGKAKLTAVTSASTAYMEVSSLTNEDSAVYYCSREGTVVANYYGLDYWGQGTSVTVSS
VL: QIVLSQSPAILSASPGEKVTMTCRASSSVSYIHWYQQKPGSSPKPWIYATSNLASGVPARFSGSGSGTSYSLTISRVEAEDAATYYCQQWSSKPPTFGAGTKLELK
notes: also called anti-Siglec-6 mAb AK03
In the test with Siglec-6 ECD Fc protein, B9 registered a Kd of 1 pM.

B10: AK12 (antibody, V domains shown)
VH: QVQLKQSGPGLVQPSQSLSITCTVSGFSLTSYGVHWVRQSPGKGLEWLGVIWGGGSTDYNAGFISRLSISKDNSKSQVFFKMNSLQADDTAIYYCARALSDWYFDVWGTGTTVTVSS
VL: QIVLSQSPAILSASPGEKVTMTCRASSSVSYMHWYQQKPGSSPKPWIYATSNLASGVPARFSGSGSGTSYSLTISRVEAEDAATYYCQQWSSNPLTFGAGTKLELK
notes: also called anti-Siglec-6 mAb AK12
As to B10, the binding result in test [1] and in test [2] was “no binding” throughout. The Kd with Siglec-6 ECD Fc protein was determined as 87 pM.

B11: AK08 (antibody, V domains shown)
VH: QVQLKESGPGLVAPSQSLSITCTVSGFSLTSYGVNWIRQPPGKGLEWLGVIWGDGSTNYHSALISRLSISKDNSKSQVFLKLNSLQTDDTATYYCAKALSDWYFDVWGTGTTVTVSS
VL: QIVLSQSPAILSASPGEKVTMTCRASSSVSYMHWYQQKPGSSPKPWIYATSNLASGVPARFSGSGSGTSYSLTISRVEAEDAATYYCQQWSSNPYTFGGGTKLEIK
notes: also called anti-Siglec-6 mAb AK08
Turning to B11, the binding result in test [1] and in test [2] was “no binding” throughout. The molecule further returned a Kd with Siglec-6 ECD Fc protein of 261 pM.

B12: AK19 Fab (Fab, V domains shown)
VH: QVQLQESGPGLVKPSETLSLTCTVSGFSLTSYGVSWIRQPPGKGLEWIGVIWHDGSTSYHSTLISRVTISRDTSKNQVSLKLSSVTAADTAVYYCASDGYSGTFAYWGQGTLVTVSS
VL: QIVVTQSPATLSLSPGERATLSCTASSSVSSSYLHWYQQKPGQAPRLLIYSTSILASGIPARFSGSGSGTDFTLTISSLQPEDFAVYYCHQYHRSPYTFGQGTKLEIK
One may read the koff as the first-order rate constant of dissociation. By kon is commonly meant the second-order rate constant of association. High values mean fast association, low ones slow association. As for B12, in test [3], the Kd was 32 pM, the off-rate constant (koff) is 2.6e-05 s⁻¹ and the on-rate constant (kon) worked out at 830000 M⁻¹ s⁻¹.

B13: AK20 Fab (Fab, V domains shown)
VH: QVQLQESGPGLVKPSETLSLTCTVSGFSLTSYGVSWIRQPPGKGLEWIGVIWHDGSTSYHPSLKSRVTISRDTSKNQVSLKLSSVTAADTAVYYCASDGYSGTFAYWGQGTLVTVSS
VL: QIVVTQSPATLSLSPGERATLSCTASSSVSSSYLHWYQQKPGQAPRLLIYSTSILASGIPARFSGSGSGTDFTLTISSLQPEDFAVYYCHQYHRSPYTFGQGTKLEIK
In test [3], B13 had a Kd of 120 pM, an off-rate constant (koff) of 9.1e-05 s⁻¹ and a kon of 750000 M⁻¹ s⁻¹.

B14: AK21 Fab (Fab, V domains shown)
VH: QVQLQESGPGLVKPSETLSLTCTVSGFSLSSYGVSWIRQPPGKGLEWIGVIWHDGSTNYNPSLKSRVTISRDTSKNQVSLKLSSVTAADTAVYYCASDGYSGTFAYWGQGTLVTVSS
VL: QIVVTQSPATLSLSPGERATLSCTASSSVSSSYLHWYQQKPGQAPRLLIYSTSILASGIPARFSGSGSGTDFTLTISSLQPEDFAVYYCHQYHRSPYTFGQGTKLEIK
In test [3], B14 displayed a Kd of 40 pM, an off-rate (koff) of 3.7e-05 s⁻¹ and an association rate constant (kon) of 920000 M⁻¹ s⁻¹.

B15: AK01 (antibody, V domains shown)
VH: QVQLKQSGPGLVQPSQSLSITCTVSGFSLTSYSVHWVRQSPGKGLEWLGVIWSGGSTDYNAVFISRLSISRDNSKSQVFFKMNSLQADDSAIYYCASYSYYTMDYWGQGTSVTVSS
VL: DVVMTQTPLSLPVSLGDQASISCRSSQSLVLDNGNTYLHWYLQKPGQSPKLLIYKVSNRFSGVPDRFTGSGSGTDFTLKINRVEAEDLGVYFCSQSTHVPFTFGSGTKLEIK
notes: also called anti-Siglec-6 mAb AK01
Turning to B15, the Kd in the test with Siglec-6 ECD Fc protein is 1 pM.

B16: AK04 (antibody, V domains shown)
VH: QVQLKESGPGLVAPSQSLSITCTVSGFSLTSYGVSWVRKPPGKGLEWLGVIWHDGSTSYHSTLISRLNISRDNSKSQVFLKLNSLQTDDTATYYCASDGYSGTFAYWGQGTLVTVSA
VL: QIVVTQSPAIMSASLGERVTMTCTASSSVSSSYLHWYQQKPGSSPKLWIYSTSILASGVPARFSGSGSGTSYSLTVSSMEAEDAATYYCHQYHRSPYTFGGGSKLEIR
notes: also called anti-Siglec-6 mAb AK04; AK04 IgG1
Regarding B16, the Kd with Siglec-6 ECD Fc protein came to 1 pM.

B17: AK04 Reference Fab (Fab, V domains shown)
VH: QVQLKESGPGLVAPSQSLSITCTVSGFSLTSYGVSWVRKPPGKGLEWLGVIWHDGSTSYHSTLISRLNISRDNSKSQVFLKLNSLQTDDTATYYCASDGYSGTFAYWGQGTLVTVSA
VL: QIVVTQSPAIMSASLGERVTMTCTASSSVSSSYLHWYQQKPGSSPKLWIYSTSILASGVPARFSGSGSGTSYSLTVSSMEAEDAATYYCHQYHRSPYTFGGGSKLEIR
Regarding B17, in test [3], the Kd was determined as 75 pM, the koff was found to be 6.5e-05 s⁻¹ and the association rate constant (kon) amounted to 860000 M⁻¹ s⁻¹.
